# Data as given in article PMC10942606.
# B1: 40 bp dsDNA (dsDNA)
# DNA 1: ATCAATATCCACCTGCAGATACTACCAAAAGTGTATTTGG
# DNA 2: CCAAATACACTTTTGGTAGTATCTGCAGGTGGATATTGAT
# Experiments:
# Test in all cases: EMSA
# [1] = target: T1, Pcf1_WHD (Schizosaccharomyces pombe, UniProt Q1MTN9 471-544)
# T1 sequence: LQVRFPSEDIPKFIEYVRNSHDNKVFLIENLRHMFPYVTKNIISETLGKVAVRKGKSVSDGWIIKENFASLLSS
# [2] = target: Pcf1 WT;Pcf2;Pcf3;SpPCNA (Schizosaccharomyces …, UniProt Q1MTN9;O13985;Q9Y825;Q03392 1-544;1-512;1-408;1-260, |||)
# Chain of Pcf1 WT;Pcf2;Pcf3;SpPCNA (Q03392 whole entry, one chain of several): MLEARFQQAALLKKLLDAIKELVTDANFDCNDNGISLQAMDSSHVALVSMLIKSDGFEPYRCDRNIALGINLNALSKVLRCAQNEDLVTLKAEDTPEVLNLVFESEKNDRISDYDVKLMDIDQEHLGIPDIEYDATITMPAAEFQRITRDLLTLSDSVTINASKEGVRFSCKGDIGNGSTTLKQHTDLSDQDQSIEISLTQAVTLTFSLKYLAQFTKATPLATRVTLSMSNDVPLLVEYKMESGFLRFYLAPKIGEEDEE
# [3] = target: T2, Pcf1 WT;Pcf2;Pcf3 (Schizosaccharomyces …, UniProt Q1MTN9;O13985;Q9Y825 1-544;1-512;1-408, ||)
# T2 sequence 1: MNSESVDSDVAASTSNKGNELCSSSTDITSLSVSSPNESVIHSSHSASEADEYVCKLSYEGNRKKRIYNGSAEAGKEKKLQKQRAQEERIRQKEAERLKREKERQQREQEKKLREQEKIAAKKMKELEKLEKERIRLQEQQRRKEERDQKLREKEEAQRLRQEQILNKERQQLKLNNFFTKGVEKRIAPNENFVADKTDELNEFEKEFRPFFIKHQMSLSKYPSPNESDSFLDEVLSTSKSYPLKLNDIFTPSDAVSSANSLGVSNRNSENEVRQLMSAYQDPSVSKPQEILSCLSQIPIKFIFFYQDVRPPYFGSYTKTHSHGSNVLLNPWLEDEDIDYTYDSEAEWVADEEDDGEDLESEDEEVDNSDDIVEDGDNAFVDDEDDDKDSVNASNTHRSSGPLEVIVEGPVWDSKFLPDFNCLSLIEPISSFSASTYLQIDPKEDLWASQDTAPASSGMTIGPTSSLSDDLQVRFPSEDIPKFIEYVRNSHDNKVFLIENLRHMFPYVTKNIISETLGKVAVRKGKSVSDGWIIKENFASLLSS
# T2 sequence 2: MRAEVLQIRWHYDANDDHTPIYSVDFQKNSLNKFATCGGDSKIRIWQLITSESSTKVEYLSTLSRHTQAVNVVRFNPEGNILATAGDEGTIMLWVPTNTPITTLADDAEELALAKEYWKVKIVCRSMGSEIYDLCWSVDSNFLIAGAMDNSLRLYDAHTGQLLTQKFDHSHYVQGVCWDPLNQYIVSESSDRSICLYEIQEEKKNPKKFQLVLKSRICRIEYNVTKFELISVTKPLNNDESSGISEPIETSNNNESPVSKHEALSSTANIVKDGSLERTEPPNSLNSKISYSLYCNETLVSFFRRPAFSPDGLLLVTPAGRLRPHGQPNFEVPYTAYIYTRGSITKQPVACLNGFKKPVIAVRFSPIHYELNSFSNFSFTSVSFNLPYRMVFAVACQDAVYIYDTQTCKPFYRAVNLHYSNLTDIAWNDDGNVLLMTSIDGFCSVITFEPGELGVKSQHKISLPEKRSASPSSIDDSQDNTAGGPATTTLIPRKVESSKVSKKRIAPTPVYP
# T2 sequence 3: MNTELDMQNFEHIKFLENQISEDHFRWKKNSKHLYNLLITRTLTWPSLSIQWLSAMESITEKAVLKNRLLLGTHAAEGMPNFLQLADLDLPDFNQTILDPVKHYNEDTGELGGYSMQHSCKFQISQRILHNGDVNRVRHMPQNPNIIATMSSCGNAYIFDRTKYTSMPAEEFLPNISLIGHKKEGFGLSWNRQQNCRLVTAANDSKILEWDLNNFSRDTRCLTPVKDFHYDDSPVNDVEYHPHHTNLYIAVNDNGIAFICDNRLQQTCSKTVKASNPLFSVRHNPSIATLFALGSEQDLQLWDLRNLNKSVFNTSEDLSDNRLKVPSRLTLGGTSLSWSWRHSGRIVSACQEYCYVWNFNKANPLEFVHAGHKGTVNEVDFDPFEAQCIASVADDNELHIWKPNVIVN
# [4] = target: Pcf1-ΔWHD;Pcf2;Pcf3;SpPCNA (Schizosaccharomyces …, UniProt Q1MTN9;O13985;Q9Y825;Q03392 1-470;1-512;1-408;1-260, del471-544|||)
# Chain of Pcf1-ΔWHD;Pcf2;Pcf3;SpPCNA (Q03392 whole entry, stated change not applied, one chain of several): as the sequence (Q03392 whole entry, one chain of several) above
binder,measurement,setting,value
B1,binding result,[1],no binding
same,binding result,[2],binds
same,apparent K (half saturation),[3],3.4 ± 0.4 µM
same,binding result,[4],binds
